Measured values as given in patent US20140086829A1 (BIOREC S A, published 2014).

Assays:
human GST-VEGF [1] = target: T1, human GST-VEGF (human, UniProt P15692-9 27-147); experiment: competition ELISA on coated GST-VEGF; soluble scFv 2H1 titrated; competitor phage scFv 2F5
T1 construct: also called GST-VEGF humano; not shown: GST fusion partner
T1 sequence (looked up): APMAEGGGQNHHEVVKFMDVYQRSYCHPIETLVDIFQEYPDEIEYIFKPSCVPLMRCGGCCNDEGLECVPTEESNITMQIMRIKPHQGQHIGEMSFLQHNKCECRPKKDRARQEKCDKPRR

human GST-VEGF [2] = target: T1, human GST-VEGF; experiment: competition ELISA on coated GST-VEGF; soluble scFv 2H1 titrated; competitor phage scFv 3B10
human GST-VEGF [3] = target: T1, human GST-VEGF; experiment: competition ELISA on coated GST-VEGF; soluble scFv 2H1 titrated; competitor phage scFv 3D4
human GST-VEGF [4] = target: T1, human GST-VEGF; experiment: competition ELISA on coated GST-VEGF; soluble scFv 2H1 titrated; competitor phage scFv 2F6
human GST-VEGF [5] = target: T1, human GST-VEGF; experiment: competition ELISA on coated GST-VEGF; soluble scFv 2H1 titrated; competitor phage scFv 2H1 original
human GST-VEGF [6] = target: T1, human GST-VEGF; experiment: competition ELISA on coated GST-VEGF; soluble scFv 2H1 titrated; competitor phage scFv 2A7
human GST-VEGF [7] = target: T1, human GST-VEGF; experiment: competition ELISA on coated GST-VEGF; soluble scFv 2H1 titrated; competitor phage scFv 4E11
human GST-VEGF [8] = target: T1, human GST-VEGF; experiment: competition ELISA on coated GST-VEGF; soluble scFv 2H1 titrated; competitor phage scFv 3E1
human GST-VEGF [9] = target: T1, human GST-VEGF; experiment: competition ELISA on coated GST-VEGF; soluble scFv 2H1 titrated; competitor phage scFv 1B1
human GST-VEGF [10] = target: T1, human GST-VEGF; experiment: competition ELISA on coated GST-VEGF; soluble scFv 2H1 titrated; competitor phage scFv 1H3
human GST-VEGF [11] = target: T1, human GST-VEGF; experiment: competition ELISA on coated GST-VEGF; soluble scFv 2H1 titrated; competitor phage scFv 3E10
human GST-VEGF [12] = target: T1, human GST-VEGF; experiment: competition ELISA on coated GST-VEGF; soluble scFv 2H1 titrated; competitor phage scFv 2B12
human GST-VEGF [13] = target: T1, human GST-VEGF; experiment: competition ELISA on coated GST-VEGF; soluble scFv 2H1 titrated; competitor phage scFv 1D12
human GST-VEGF [14] = target: T1, human GST-VEGF; experiment: competition ELISA on coated GST-VEGF; soluble scFv 2H1 titrated; competitor phage scFv 2H10
human GST-VEGF [15] = target: T1, human GST-VEGF; experiment: competition ELISA on coated GST-VEGF; soluble scFv 2H1 titrated; competitor phage scFv L2
human GST-VEGF [16] = target: T1, human GST-VEGF; experiment: competition ELISA on coated GST-VEGF; soluble scFv 2H1 titrated; competitor phage scFv 3E5
human GST-VEGF [17] = target: T1, human GST-VEGF; experiment: competition ELISA on coated GST-VEGF; soluble scFv 2H1 titrated; competitor phage scFv 1B1; remark: listed apart in the source
mouse VEGF (Peprotech) = target: T2, mouse VEGF (Peprotech) (mouse, UniProt Q00731-2 27-190, limits assumed); experiment: ELISA; antigen coated 1 µg/ml; scFv 10 µg/mL; 9E10-peroxidase
T2 construct: also called Mouse VEGF-A
T2 sequence (looked up): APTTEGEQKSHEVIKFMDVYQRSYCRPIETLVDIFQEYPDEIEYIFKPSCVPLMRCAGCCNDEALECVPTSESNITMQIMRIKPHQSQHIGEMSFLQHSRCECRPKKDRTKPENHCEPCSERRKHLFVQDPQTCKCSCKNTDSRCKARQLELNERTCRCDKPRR

[18] = target: T3, isoform 165 of human VEGF-A (Peprotech) (human, UniProt P15692-4 27-191); experiment: as above
T3 construct: also called human VEGF165; VEGF 165
T3 sequence (P15692 other isoform, or with tags, fused parts or gaps limits assumed): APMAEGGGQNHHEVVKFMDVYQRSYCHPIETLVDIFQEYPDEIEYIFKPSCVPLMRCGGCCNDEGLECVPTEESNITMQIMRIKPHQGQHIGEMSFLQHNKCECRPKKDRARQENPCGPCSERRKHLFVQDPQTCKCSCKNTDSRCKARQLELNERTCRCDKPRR

[19] = target: T4, isoform 121 of human VEGF-A (Peprotech) (human, UniProt P15692-9 27-147); experiment: as above
T4 construct: also called human VEGF121; VEGF 121
T4 sequence (looked up): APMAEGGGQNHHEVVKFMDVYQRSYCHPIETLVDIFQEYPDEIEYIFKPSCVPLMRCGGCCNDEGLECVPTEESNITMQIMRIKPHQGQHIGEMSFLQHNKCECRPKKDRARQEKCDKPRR

human GST-VEGF [20] = target: T1, human GST-VEGF; experiment: competition ELISA on coated GST-VEGF; soluble scFv 2H1 titrated; competitor phage scFv 1E9
human GST-VEGF [21] = target: T1, human GST-VEGF; experiment: competition ELISA on coated GST-VEGF; soluble scFv 2H1 titrated; competitor phage scFv 4H3
P64K-VEGFKDR- (human) = P64K-VEGFKDR- (human) (UniProt P15692); experiment: ELISA; antigen coated 1 µg/ml; scFv 10 µg/mL; 9E10-peroxidase
[22] = target: T3, isoform 165 of human VEGF-A (Peprotech); experiment: SPR, BIAcore-X; VEGF 165 coupled to CM5 chip; scFv injected; Langmuir 1:1
human GST-VEGF [23] = target: T1, human GST-VEGF; experiment: competition ELISA on coated GST-VEGF; soluble scFv 2H1 titrated; competitor phage scFv 2F6; remark: listed apart in the source

B1: soluble scFv 2H1 antibody fragment (scFv, from another filing)
scFv: QQVQLVQSGAEVKKPGESLKISCKGSGYSFTSYWIGWVRQMPGKGLEWMGIIYPGDSDTRYSPSFQGQVTISADKSISTAYLQWSSLKASDTAMYYCARLVVRDTEIWGQGTMVTVSSAPQAKSSGSGSESKVDQAVVTQEPSLTVSPGGTVTLTCASSIGAVTSGNYPNWFQQRPGQPPRALIYSTSNKHSWTPARFSGSLLGGKAALTLSGAQPEDEAEYYCLLSYSGARPVFGGGTKLTVLGAAAGSEQKLISEEDLNSHHHHHH
- IC50 (human GST-VEGF [1]): 4.21 µg/mL
- IC50 (human GST-VEGF [2]): 7.94 µg/mL
- IC50 (human GST-VEGF [3]): 16.3 µg/mL
- IC50 (human GST-VEGF [4]): 115 µg/mL
- IC50 (human GST-VEGF [5]): 4.89 µg/mL
- IC50 (human GST-VEGF [6]): 15.8 µg/mL
- IC50 (human GST-VEGF [7]): 5.28 µg/mL
- IC50 (human GST-VEGF [8]): 21.2 µg/mL
- IC50 (human GST-VEGF [9]): 151 µg/mL
- IC50 (human GST-VEGF [10]): 117 µg/mL
- IC50 (human GST-VEGF [11]): 15.1 µg/mL
- IC50 (human GST-VEGF [12]): 21.1 µg/mL
- IC50 (human GST-VEGF [13]): 58.9 µg/mL
- IC50 (human GST-VEGF [14]): 10.2 µg/mL
- IC50 (human GST-VEGF [15]): 126 µg/mL
- IC50 (human GST-VEGF [16]): 9.06 µg/mL
- IC50 (human GST-VEGF [17]): 149 µg/mL
- absorbance at 492 nm (mouse VEGF (Peprotech)): 0.09
- absorbance at 492 nm [18]: 0.665
- absorbance at 492 nm [19]: 0.691
- IC50 (human GST-VEGF [20]): 46.2 µg/mL
- IC50 (human GST-VEGF [21]): 12.2 µg/mL
- absorbance at 492 nm (P64K-VEGFKDR- (human)): 0.764
- Kd [22]: 457 nM
- IC50 (human GST-VEGF [23]): 119 µg/mL
